Assay results from the supplement of paper PMC9112550, “Optimization of the antimicrobial peptide Bac7 by deep mutational scanning” (BMC Biology, 2022).

System: Escherichia coli TOP10
Test: shrunken log2 fold change of peptide-encoding DNA abundance (4.5 h post-induction vs induction); higher = less antimicrobial activity (less host growth inhibition)
Details: time post-induction: 4.5 h; library: site-saturation at positions 5, 18, 19, 20
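Further: peptides expressed intracellularly from a pBAD plasmid library in pooled LB shake-flask culture, induced with 0.3% L-arabinose, DNA abundance read by NGS, three biological replicates, DESeq2 with apeglm shrinkage.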

| Sequence | shrunken log2 fold change |
| --- | --- |
| RRIRGRPPRLPRPRPRPNAGPRP | 0.552 |
| RRIRWRPPRLPRPRPRPIVWPRP | -0.0161 |
| RRIRQRPPRLPRPRPRPDHLPRP | 0.0112 |
| RRIRLRPPRLPRPRPRPGGLPRP | 0.097 |
| RRIRSRPPRLPRPRPRPRFMPRP | -0.211 |
| RRIRFRPPRLPRPRPRPPRQPRP | 0.828 |
| RRIRPRPPRLPRPRPRPSCHPRP | -0.31 |
| RRIRWRPPRLPRPRPRPQGWPRP | 0.0714 |
| RRIRWRPPRLPRPRPRPEHGPRP | 0.265 |
| RRIRLRPPRLPRPRPRPCLAPRP | -0.219 |
| RRIRHRPPRLPRPRPRPRALPRP | 0.152 |
| RRIRFRPPRLPRPRPRPHSQPRP | -0.351 |
| RRIRARPPRLPRPRPRPCVCPRP | 0.301 |
| RRIRQRPPRLPRPRPRPPFIPRP | -0.0092 |
| RRIRWRPPRLPRPRPRPQCDPRP | 0.462 |
| RRIRTRPPRLPRPRPRPAYGPRP | -0.285 |
| RRIRYRPPRLPRPRPRPPWNPRP | -0.161 |
| RRIRNRPPRLPRPRPRPRSEPRP | 0.139 |
| RRIRGRPPRLPRPRPRPGQWPRP | 0.356 |
| RRIRRRPPRLPRPRPRPRRCPRP | 0.615 |
| RRIRFRPPRLPRPRPRPWRLPRP | -0.799 |
| RRIRIRPPRLPRPRPRPCRNPRP | -0.604 |
| RRIRIRPPRLPRPRPRPHRAPRP | 0.0775 |
| RRIRTRPPRLPRPRPRPCKYPRP | -0.41 |
| RRIRIRPPRLPRPRPRPVQKPRP | 0.0154 |

| Sequence | shrunken log2 fold change |
| --- | --- |
| RRIRIRPPRLPRPRPRPHEKPRP | -0.123 |
| RRIRLRPPRLPRPRPRPELSPRP | -0.113 |
| RRIRCRPPRLPRPRPRPPWGPRP | 0.122 |
| RRIRFRPPRLPRPRPRPGYKPRP | -0.438 |
| RRIRWRPPRLPRPRPRPGTTPRP | 0.0295 |
| RRIRERPPRLPRPRPRPIPIPRP | -0.027 |
| RRIRNRPPRLPRPRPRPNKQPRP | -0.0266 |
| RRIRWRPPRLPRPRPRPGNGPRP | -0.0519 |
| RRIRKRPPRLPRPRPRPEDAPRP | 0.054 |
| RRIRDRPPRLPRPRPRPCYPPRP | -0.0894 |
| RRIRRRPPRLPRPRPRPEFVPRP | -0.0836 |
| RRIRTRPPRLPRPRPRPGASPRP | 0.156 |
| RRIRGRPPRLPRPRPRPTLMPRP | 0.815 |
| RRIRVRPPRLPRPRPRPDWPPRP | 0.334 |
| RRIRSRPPRLPRPRPRPFKFPRP | -0.438 |
| RRIRARPPRLPRPRPRPHLAPRP | 0.298 |
| RRIRSRPPRLPRPRPRPGAGPRP | 0.445 |
| RRIRMRPPRLPRPRPRPKIVPRP | 0.0132 |
| RRIRMRPPRLPRPRPRPVTDPRP | -0.0129 |
| RRIRGRPPRLPRPRPRPDAYPRP | 0.829 |
| RRIRKRPPRLPRPRPRPRWVPRP | 0.642 |
| RRIRTRPPRLPRPRPRPIERPRP | 0.107 |
| RRIRKRPPRLPRPRPRPYAPPRP | -0.241 |
| RRIRERPPRLPRPRPRPREKPRP | 0.354 |
| RRIRQRPPRLPRPRPRPDRMPRP | -0.0981 |

| Sequence | shrunken log2 fold change |
| --- | --- |
| RRIRARPPRLPRPRPRPSHRPRP | 0.0188 |
| RRIRYRPPRLPRPRPRPILGPRP | -0.00192 |
| RRIRDRPPRLPRPRPRPPWPPRP | 0.654 |
| RRIRDRPPRLPRPRPRPMMVPRP | 0.0541 |
| RRIRQRPPRLPRPRPRPMCWPRP | -0.00818 |
| RRIRIRPPRLPRPRPRPHELPRP | -0.156 |
| RRIRPRPPRLPRPRPRPMAVPRP | 0.0404 |
| RRIRGRPPRLPRPRPRPNGFPRP | 0.0031 |
| RRIRWRPPRLPRPRPRPGCQPRP | -0.0225 |
| RRIRDRPPRLPRPRPRPVGKPRP | 0.0278 |
| RRIRFRPPRLPRPRPRPWHSPRP | -0.018 |
| RRIRRRPPRLPRPRPRPRDLPRP | 0.427 |
| RRIRFRPPRLPRPRPRPPNPPRP | 0.412 |
| RRIRGRPPRLPRPRPRPCWWPRP | 0.554 |
| RRIRVRPPRLPRPRPRPTRHPRP | 0.156 |
| RRIRQRPPRLPRPRPRPCLMPRP | -0.0141 |
| RRIRLRPPRLPRPRPRPKEMPRP | 0.0765 |
| RRIRMRPPRLPRPRPRPVWVPRP | 0.0789 |
| RRIRYRPPRLPRPRPRPVFPPRP | -0.0627 |
| RRIRARPPRLPRPRPRPTSDPRP | 0.954 |
| RRIRYRPPRLPRPRPRPFLMPRP | -0.922 |
| RRIRNRPPRLPRPRPRPFVCPRP | -0.45 |
| RRIRFRPPRLPRPRPRPKTLPRP | -0.145 |
| RRIRYRPPRLPRPRPRPVKYPRP | -0.135 |
| RRIRNRPPRLPRPRPRPKDFPRP | -0.000911 |

| Sequence | shrunken log2 fold change |
| --- | --- |
| RRIRFRPPRLPRPRPRPVLKPRP | -0.24 |
| RRIRGRPPRLPRPRPRPDQTPRP | 0.0112 |
| RRIRMRPPRLPRPRPRPWHTPRP | 0.0985 |
| RRIRYRPPRLPRPRPRPRGYPRP | -0.365 |
| RRIRPRPPRLPRPRPRPTMVPRP | -0.0466 |
| RRIRARPPRLPRPRPRPSTPPRP | 0.235 |
| RRIRDRPPRLPRPRPRPTVSPRP | 0.853 |
| RRIRTRPPRLPRPRPRPQPEPRP | 0.0514 |
| RRIRGRPPRLPRPRPRPGWKPRP | 0.0657 |
| RRIRQRPPRLPRPRPRPEGSPRP | -0.00794 |
| RRIRSRPPRLPRPRPRPWISPRP | 0.181 |
| RRIRLRPPRLPRPRPRPARAPRP | 0.268 |
| RRIRNRPPRLPRPRPRPACDPRP | -0.00482 |
| RRIRNRPPRLPRPRPRPAWTPRP | 0.182 |
| RRIRLRPPRLPRPRPRPVETPRP | 0.217 |
| RRIRQRPPRLPRPRPRPVGIPRP | -0.0511 |
| RRIRHRPPRLPRPRPRPTKGPRP | -0.14 |
| RRIRERPPRLPRPRPRPVMCPRP | 0.0654 |
| RRIRGRPPRLPRPRPRPMNCPRP | 0.0167 |
| RRIRQRPPRLPRPRPRPDPSPRP | -0.132 |
| RRIRCRPPRLPRPRPRPCYSPRP | -0.379 |
| RRIRCRPPRLPRPRPRPFCPPRP | -0.225 |
| RRIRWRPPRLPRPRPRPPWVPRP | -0.00745 |
| RRIRVRPPRLPRPRPRPRSKPRP | -0.108 |
| RRIRMRPPRLPRPRPRPPTAPRP | 1.03 |

| Sequence | shrunken log2 fold change |
| --- | --- |
| RRIRLRPPRLPRPRPRPMQWPRP | 0.0515 |
| RRIRLRPPRLPRPRPRPRWDPRP | 0.141 |
| RRIRPRPPRLPRPRPRPDEKPRP | -0.0591 |
| RRIRSRPPRLPRPRPRPFDVPRP | -0.151 |
| RRIRIRPPRLPRPRPRPTRLPRP | 0.0583 |
| RRIRKRPPRLPRPRPRPLNHPRP | -0.0528 |
| RRIRQRPPRLPRPRPRPMQEPRP | 0.0325 |
| RRIRARPPRLPRPRPRPHPPPRP | 0.706 |
| RRIRPRPPRLPRPRPRPVPHPRP | 0.0546 |
| RRIRDRPPRLPRPRPRPGLSPRP | 0.241 |
| RRIRNRPPRLPRPRPRPMHIPRP | -0.168 |
| RRIRNRPPRLPRPRPRPGRNPRP | -0.202 |
| RRIRWRPPRLPRPRPRPHKNPRP | -0.13 |
| RRIRERPPRLPRPRPRPWYCPRP | 0.00607 |
| RRIRMRPPRLPRPRPRPDCGPRP | -0.167 |
| RRIRERPPRLPRPRPRPQLGPRP | 0.329 |
| RRIRPRPPRLPRPRPRPDALPRP | 0.0315 |
| RRIRGRPPRLPRPRPRPVMNPRP | 0.434 |
| RRIRFRPPRLPRPRPRPEVEPRP | 0.00408 |
| RRIRQRPPRLPRPRPRPLDRPRP | 0.0981 |
| RRIRWRPPRLPRPRPRPVACPRP | -0.052 |
| RRIRSRPPRLPRPRPRPNETPRP | -0.198 |
| RRIRPRPPRLPRPRPRPFGAPRP | -0.00494 |
| RRIRGRPPRLPRPRPRPVNMPRP | 0.189 |
| RRIRGRPPRLPRPRPRPTMAPRP | 1.24 |

| Sequence | shrunken log2 fold change |
| --- | --- |
| RRIRGRPPRLPRPRPRPVTKPRP | 0.661 |
| RRIRTRPPRLPRPRPRPCQFPRP | -0.0244 |
| RRIRFRPPRLPRPRPRPETMPRP | 0.0761 |
| RRIRGRPPRLPRPRPRPMVDPRP | 0.0455 |
| RRIRLRPPRLPRPRPRPQGNPRP | -0.0463 |
| RRIRVRPPRLPRPRPRPIRQPRP | -0.294 |
| RRIRFRPPRLPRPRPRPGTHPRP | 1.26 |
| RRIRMRPPRLPRPRPRPQYPPRP | -0.0385 |
| RRIRWRPPRLPRPRPRPTGEPRP | 0.306 |
| RRIRIRPPRLPRPRPRPAHDPRP | 0.0246 |
| RRIRDRPPRLPRPRPRPWLWPRP | 0.0548 |
| RRIRLRPPRLPRPRPRPVAAPRP | 0.382 |
| RRIRNRPPRLPRPRPRPMDCPRP | 0.0919 |
| RRIRPRPPRLPRPRPRPEWYPRP | 0.203 |
| RRIRGRPPRLPRPRPRPMCSPRP | 0.606 |
| RRIRNRPPRLPRPRPRPSDIPRP | 0.0588 |
| RRIRWRPPRLPRPRPRPPEQPRP | 0.153 |
| RRIRTRPPRLPRPRPRPTCCPRP | -0.0411 |
| RRIRVRPPRLPRPRPRPFNQPRP | -0.19 |
| RRIRMRPPRLPRPRPRPIFKPRP | 0.161 |
| RRIRFRPPRLPRPRPRPTGGPRP | 0.259 |
| RRIRQRPPRLPRPRPRPFALPRP | -0.103 |
| RRIRPRPPRLPRPRPRPRHHPRP | -0.0806 |
| RRIRPRPPRLPRPRPRPAKAPRP | -0.0289 |
| RRIRQRPPRLPRPRPRPNKQPRP | 0.0262 |
